# US20150329863, “APTAMERS INHIBITING THE ENZYMATIC ACTIVITY OF TYROSINASE” (L V M H RECHERCHE, published 2015)
# T1: tyrosinase (endogenous, normal human melanocytes) (Homo sapiens) (UniProt P14679)
# T1 sequence: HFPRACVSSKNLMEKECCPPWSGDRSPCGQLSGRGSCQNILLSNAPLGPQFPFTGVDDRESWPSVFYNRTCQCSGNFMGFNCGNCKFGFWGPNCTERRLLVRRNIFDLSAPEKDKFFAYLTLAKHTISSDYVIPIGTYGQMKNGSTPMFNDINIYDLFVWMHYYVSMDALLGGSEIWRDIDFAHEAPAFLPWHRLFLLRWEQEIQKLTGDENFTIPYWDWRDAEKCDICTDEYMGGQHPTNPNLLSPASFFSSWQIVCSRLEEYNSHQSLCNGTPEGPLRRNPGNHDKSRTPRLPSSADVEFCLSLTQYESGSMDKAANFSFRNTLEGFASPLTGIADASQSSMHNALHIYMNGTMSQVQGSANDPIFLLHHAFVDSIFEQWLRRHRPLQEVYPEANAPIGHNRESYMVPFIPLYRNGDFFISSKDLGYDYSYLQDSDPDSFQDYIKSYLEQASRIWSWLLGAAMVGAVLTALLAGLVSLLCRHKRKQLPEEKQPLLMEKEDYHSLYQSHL
# T2: tyrosinase (TYR) (Homo sapiens, UniProt P14679 P14679:19-529)
# T2 sequence: T1 sequence
# B1: T10.1 (ssDNA)
# DNA: GCCTGTTGTGAGCCTCCTGTCGAACGCAATGGGCGCAGATTGGAAGGCCTAGCATTGAGCGTTTATTCTTGTCTCCC
# Assays:
# [1] = biological target: T1, tyrosinase (endogenous, normal human melanocytes) (Homo sapiens); test: cell_activity; details: 4-200 nM, no dose dependence; 72 h melanocyte treatment, L-DOPA oxidation
# tyrosinase (TYR) = biological target: T2, tyrosinase (TYR); test: SPR; 16 RU at 500 nM and 42 RU at 1 uM tyrosinase on about 1000 RU immobilized biotinylated aptamer; PBS-Mg buffer, 23 C; details: tags: N-terminal GST tag, Abnova; label: biotin (SPR); predicted long imperfect stem-loop with 5-nt internal loop and 5-nt apical loop
# Procedure: All the experiments were carried out on a Biacore 3000 device with PBS—Mg buffer at 23° C. The biotinylated oligonucleotides—heated at 75° C. for 5 minutes, placed on ice for 5 minutes and then placed at room temperature for at least 5 minutes—were immobilized on streptavidin-coated sensor chips (XanTec bioanalytics). The oligonucleotides were injected at 100 nM for 4 minutes at 5 μl/min to reach 800 to 1000 RU.
# Tyrosinase and the GST-His control were injected at 500 nM and 1 μM at a rate of 20 μl/min at 23° C. The same injections were carried out with PBS—Mg buffer and tyrosinase storage buffer to subtract the effects of the buffer from the specific sensorgram.
# The binding of this candidate, T10.1, and of truncated versions derived from the full-length candidate (Table 1) was investigated by surface plasmon resonance (SPR). About 1000 resonance units (RU) of biotinylated candidate T10.1 were immobilized and tyrosinase was injected at 500 nM or 1 μM. Signals of 16 and 42 RU were detected for 500 nM and 1 μM, respectively, indicating interaction between candidate T10.1 and tyrosinase (FIG. 2).
Molecule,activity [1] [% inhibition],binding result (tyrosinase (TYR))
GCCTGTTGTGAGCCTCCTGTCGAANNNNNNNNNNNNNNNNNNNNNNNNNNNNNNTTGAGCGTTTATTCTTGTCTCCC [round 10 population],> 75,–
B1,–,binds
